Patent publication US20250066503A1, “CELL INJURY INDUCING THERAPEUTIC DRUG FOR USE IN CANCER THERAPY” (CHUGAI SEIYAKU KABUSHIKI KAISHA, priority 2016, published 2025)
Numbering of substitutions follows the chain as printed. Names may count otherwise.

B1: CE115HA251-E22Hh/L0000-k0/GL4-E22Hk/H0610-E22L (bispecific antibody, human IgG1, kappa, L234A L235A, N297A)
heavy: QVQLVESGGGVVQPGRSLRLSCAASGFTFSNAWMHWVRQAPGKGLEWVAQIKAKSNNYATYYAESVKGRFTISRDDSKNSLYLQMNSLKTEDTAVYYCRYVHYYYYYGVDAWGQGTTVTVSSASTKGPSVFPLAPSSKSTSGGTAALGCLVKDYFPEPVTVSWNSGALTSGVHTFPAVLQSSGLYSLSSVVTVPSSSLGTQTYICNVNHKPSNTKVDKKVEPKSCDKTHTCPPCPAPEAAGGPSVFLFPPKPKDTLMISRTPEVTCVVVDVSHEDPEVKFNWYVDGVEVHNAKTKPREEQYASTYRVVSVLTVLHQDWLNGKEYKCKVSNKALPAPIEKTISKAKGQPREPQVYTLPPSRCELTKNQVSLSCAVKGFYPSDIAVEWESNGQPENNYKTTPPVLDSDGSFFLVSKLTVDKSRWQQGNVFSCSVMHEALHNHYTQKSLSLSPDYKDDDDK
light: DIVMTQSPLSLPVTPGEPASISCRSSQSLVHSNRNTYLHWYQQKPGQAPRLLIYKVSNRFSGVPDRFSGSGSGTDFTLKISRVEAEDVGVYYCGQGTQVPYTFGQGTKLEIKRTVAAPSVFIFPPSDEQLKSGTASVVCLLNNFYPREAKVQWKVDNALQSGNSQESVTEQDSKDSTYSLSSTLTLSKADYEKHKVYACEVTHQGLSSPVTKSFNRGEC
chain 1: DIVMTQSPLSLPVTPGEPASISCRSSQSLVHSNRNTYLHWYQQKPGQAPRLLIYKVSNRFSGVPDRFSGSGSGTDFTLKISRVEAEDVGVYYCSQNTHVPPTFGQGTKLEIKSSASTKGPSVFPLAPSSKSTSGGTAALGCLVKDYFPEPVTVSWNSGALTSGVHTFPAVLQSSGLYSLSSVVTVPSSSLGTQTYICNVNHKPSNTKVDKKVEPKSCDKTHTCPPCPAPEAAGGPSVFLFPPKPKDTLMISRTPEVTCVVVDVSHEDPEVKFNWYVDGVEVHNAKTKPREEQYASTYRVVSVLTVLHQDWLNGKEYKCKVSNKALPAPIEKTISKAKGQPREPQVCTLPPSRDELTKNQVSLWCLVKGFYPSDIAVEWESNGQPENNYKTTPPVLDSDGSFFLYSKLTVDKSRWQQGNVFSCSVMHEALHNHYTQKSLSLSPHHHHHHHH
chain 2: QVQLVQSGAEVKKPGASVKVSCKASGYTFTDYEMHWIRQPPGQGLEWIGAIDGKTPDTAYSQKFKGRVTLTADKSTSTAYMELSSLTSEDTAVYYCTRFYSYTYWGQGTLVTVSSASVAAPSVFIFPPSDEQLKSGTASVVCLLNNFYPREAKVQWKVDNALQSGNSQESVTEQDSKDSTYSLSSTLTLSKADYEKHKVYACEVTHQGLSSPVTKSFNRGEC
notes: ERY22 format
B2: TR01H015-E22Hh/L0000-k0/GL4-E22Hk/H0610-E22L (bispecific antibody, human IgG1, kappa, L234A L235A, N297A)
heavy: B1 heavy with V11L, A53G, D75A, L81I, Y104S, Y105A, Y106S, A111I
light: B1 light
chain 1: B1 chain 1
chain 2: B1 chain 2
notes: ERY22 format
B3: TR01H002-E22Hh/GLS3108-k0/GL4-E22Hk/H0610-E22L (bispecific antibody, human IgG1, kappa, L234A L235A, N297A)
heavy: B1 heavy with A59K, T60K, D110Q
light: B1 light with H39S
chain 1: B1 chain 1
chain 2: B1 chain 2
notes: ERY22 format
B4: CE115HA236-E22Hh/GLS3108-k0/GL4-E22Hk/H0610-E22L (bispecific antibody, human IgG1, kappa, L234A L235A, N297A)
heavy: B1 heavy with Y105A, D110Q
light: B1 light with H39S
chain 1: B1 chain 1
chain 2: B1 chain 2
notes: ERY22 format
B5: GPC3_ERY27 (hCE115HA-E22Hh/L0000-k0/GL4-E22Hk/H0000-E22L) (bispecific antibody, human IgG1, kappa, L234A L235A, N297A)
heavy: B1 heavy with Y104G, Y105A
light: B1 light
chain 1: B1 chain 1
chain 2: B1 chain 2 with G53P, P56G
notes: ERY22 format
B6: GCH054-G1dh/none-Hi-Kn010G3/L0011-k0 (antibody, V domains shown)
VH: QVQLVQSGAEVKKPGASVTVSCKASGYTFTDYEMHWIRQPPGEGLEWIGAIDGETPDTAYSEKFKGRVTLTADKSTSTAYMELSSLTSEDTAVYYCTRFYSYTYWGQGTLVTVSS
VL: DIVMTQSPLSLPVTPGEPASISCRSSQPLVHSNRNTYLHWYQQKPGQAPRLLIYKVSNRFSGVPDRFSGSGSGTDFTLKISRVEAEDVGVYYCGQGTQVPYTFGQGTKLEIKR
notes: one-arm
B7: GCH065-G1dh/none-Hi-Kn010G3/L0011-k0 (antibody, V domains shown)
VH: B6 VH with E54P
VL: B6 VL
notes: one-arm
B8: H0610-G1dh/none-Hi-Kn010G3/L0000-k0 (antibody, V domains shown)
VH: B6 VH with T19K, E43Q, E54K, E62Q
VL: B6 VL with P28S
notes: one-arm
B9: GCH094-G1dh/none-Hi-Kn010G3/L0011-k0 (antibody, V domains shown)
VH: B6 VH with I37V, P40A, I48M
VL: B6 VL
notes: one-arm
B10: hCE115HA/L0000 single-arm antibody (antibody, human IgG1, V domains shown)
VH: QVQLVESGGGVVQPGRSLRLSCAASGFTFSNAWMHWVRQAPGKGLEWVAQIKAKSNNYATYYAESVKGRFTISRDDSKNSLYLQMNSLKTEDTAVYYCRYVHYGAYYGVDAWGQGTTVTVSS
VL: DIVMTQSPLSLPVTPGEPASISCRSSQSLVHSNRNTYLHWYQQKPGQAPRLLIYKVSNRFSGVPDRFSGSGSGTDFTLKISRVEAEDVGVYYCGQGTQVPYTFGQGTKLEIK
notes: single Fab on human IgG1 Fc heterodimerized by knobs-into-hole
B11: H0000/GL4 single-arm antibody (antibody, human IgG1, V domains shown)
VH: B6 VH with T19K, E43Q, G53P, E54K, P56G, E62Q
VL: B10 VL with G94S, G96N, Q98H, Y101P
notes: as for B10
B12: H0000/L0000 single-arm antibody (antibody, human IgG1, V domains shown)
VH: B6 VH with T19K, E43Q, G53P, E54K, P56G, E62Q
VL: B10 VL
notes: as for B10

target: T1, soluble human CD3 epsilon chain (human, UniProt P07766 23-126); assay: SPR
T1 construct: also called CD3ε
T1 sequence (P07766 23-126 limits assumed): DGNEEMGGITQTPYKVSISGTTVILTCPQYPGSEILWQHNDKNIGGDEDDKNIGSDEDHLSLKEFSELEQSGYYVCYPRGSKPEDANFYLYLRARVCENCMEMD

Kd [nM]	Binder
13.7	B1
35.7	B2
2.04	B3
6.08	B4
61.6	B5

target: T2, human GPC3 (human, UniProt P51654 25-563); assay: SPR
T2 construct: range 25-563; soluble analyte; also called soluble human GPC3; glypican 3
T2 sequence (P51654 25-563 limits assumed): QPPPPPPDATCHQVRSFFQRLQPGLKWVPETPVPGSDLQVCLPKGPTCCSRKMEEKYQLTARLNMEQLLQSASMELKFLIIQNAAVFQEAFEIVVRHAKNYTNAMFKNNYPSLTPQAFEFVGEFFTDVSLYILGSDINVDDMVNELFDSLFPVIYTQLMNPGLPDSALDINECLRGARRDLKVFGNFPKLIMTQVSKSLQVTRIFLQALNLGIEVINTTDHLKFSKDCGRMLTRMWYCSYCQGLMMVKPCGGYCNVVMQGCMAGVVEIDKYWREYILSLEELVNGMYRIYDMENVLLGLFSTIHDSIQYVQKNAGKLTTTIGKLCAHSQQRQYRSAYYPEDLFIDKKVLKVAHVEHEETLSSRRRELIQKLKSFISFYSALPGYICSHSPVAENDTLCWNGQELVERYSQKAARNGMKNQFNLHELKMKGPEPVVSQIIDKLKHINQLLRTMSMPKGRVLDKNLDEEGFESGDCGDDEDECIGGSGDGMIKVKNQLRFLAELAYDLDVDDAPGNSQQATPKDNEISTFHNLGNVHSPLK

Kd [nM]	Binder
5.25	B6
0.884	B7
3.97	B8
3.88	B9
0.236	B1
0.263	B2
0.475	B3
0.267	B4
4.28	B5

target: T2, human GPC3; assay: SPR, single-arm antibody

Kd [nM]	Binder
5.25	B6
0.884	B7
4.16	B8
4.54	B9

target: T1, soluble human CD3 epsilon chain; assay: SPR, human CD3 on the chip
Protocol: The activity to bind human CD3 when using hCE115HA (SEQ ID NO: 52) as the H chain variable region and L0000 (SEQ ID NO: 53) as the L-chain variable region was evaluated. This was performed using the molecular form of a single-arm antibody having a single Fab at the Fc region of a human IgG1 heterodimerized by the knobs-into-hole technique.
The affinity and binding rate constants of an anti-CD3 antibody for an antigen were measured by the single-cycle kinetics method of a surface plasmon resonance assay using Biacore™-T200 (GE Healthcare Japan). HBS-EP+(GE Healthcare Japan) was used for the running buffer, and an amine coupling kit (GE Healthcare Japan) was used to covalently bind human CD3 to the CM4 chip (carboxymethyl dextran-coated chip). The anti-CD3 antibody used as the analyte was prepared at 5 and […] using HBS-EP+. Measurements were carried out by first injecting each of the 5- and 20-g/mL anti-CD3 antibody solutions for three minutes continuously at a flow rate of 20 L/min to allow reaction to take place. Then, the solution was switched to HBS-EP+ and the dissociation phase was measured for 3 minutes. After completion of the dissociation phase measurement, the sensor chip was regenerated by washing with 10 mM Gly-HCl at pH 1.5. Measurement at the concentration of 0 was carried out by performing each of the three-minute HBS-EP+ injections twice successively to allow reaction to take place, and then switching to HBS-EP+ to measure the dissociation phase for 3 minutes. After completion of the dissociation phase measurement, the sensor chip was regenerated by washing with 10 mM Gly-HCl at pH 1.5. A data analysis software exclusively for Biacore, Biacore T200 Evaluation Software Version 1.0, was used to perform kinetic analyses to calculate the binding rate constant (ka), dissociation rate constant (kd), and the rate constant ratio from the obtained sensorgrams.

Kd [nM]	koff [s⁻¹]	kon [M⁻¹ s⁻¹]	Binder
120	0.023	190000	B10

target: T2, human GPC3; assay: SPR, antibody captured by Protein A/G
Protocol: The activity to bind human GPC3 when using GL4 (SEQ ID NO: 41) and L0000 (SEQ ID NO: 53) as the L-chain variable regions was evaluated. This was performed using the molecular form of a single-arm antibody having a single Fab at the Fc region of a human IgG1 heterodimerized by the knobs-into-hole technique. H0000 (SEQ ID NO: 40) was used for the anti-GPC3 antibody H-chain variable region.
The affinity and binding rate constants of an anti-GPC3 antibody for an antigen were measured by the multi-cycle kinetics method of a surface plasmon resonance assay using Biacore™-T200 (GE Healthcare Japan). HBS-EP+(GE Healthcare Japan) was used for the running buffer, and an amine coupling kit (GE Healthcare Japan) was used to covalently bind Protein A/G to the CM5 chip (carboxymethyl dextran-coated chip). […] Measurements were carried out by first allowing Protein A/G to capture the antibody solution, and then injecting the human GPC3 solution at a flow rate of […] for three minutes to allow reaction to take place. Then, the solution was switched to HBS-EP+ and the dissociation phase was measured for 15 minutes. After completion of the dissociation phase measurement, the sensor chip was regenerated by washing with 10 mM Gly-HCl at pH 1.5. Measurement at the concentration of 0 was similarly carried out by allowing Protein A/G to capture the antibody solution, performing a three-minute HBS-EP+ injection to allow reaction to take place, and then switching to HBS-EP+ to measure the dissociation phase for 15 minutes. After completion of the dissociation phase measurement, the sensor chip was regenerated by washing with 10 mM Gly-HCl at pH 1.5. A data analysis software exclusively for Biacore, Biacore T200 Evaluation Software Version 1.0, was used to perform kinetic analyses to calculate the binding rate constant (ka), dissociation rate constant (kd), and the rate constant ratio from the obtained sensorgrams.

Kd [nM]	koff [s⁻¹]	kon [M⁻¹ s⁻¹]	Binder
4.2	0.0018	430000	B11
36	0.011	300000	B12
